Experimental data from patent CN113583115A (YANG SHENG TANG CO LTD; UNIV XIAMEN, dated 2021).
Positions count from the first letter of the chain named.

B1: 兔源单克隆抗体3F4 (antibody, V domains shown)
VH: QSVKESGGRLVTPGTPLTLTCTVSGFSLSSYWMSWVRQAPGKGLEWIGIIFTGGSTYYASWAKGRFTISKTSTTVDLKITSPTTEDTATYFCARTSYYDVSGWGVGRLDLWGQGTLVTVSS
VL: DPMLTQTASSVSAAVGGTVTISCQSSQSVYDNNWLGWYQQKPGQPPKLLIYSASTLASGVPSRFKGSGSGTQFTLTISDLECDDAATYYCAGGYSGNIFAFGGGTELEIL
notes: also called r3F4
B2: 3F4人源化抗体 (VH SEQ ID NO:15 + VL SEQ ID NO:19) (antibody, V domains shown)
VH: EVQLVESGGGLVQPGGSLRLSCAASGFSLSSYWMSWVRQAPGKGLEWVSIIFTGGSTYYASWAKGRFTISRHNSKNTLYLQMNSLRAEDTAVYYCARTSYYDVSGWGVGRLDLWGQGTLVTVSS
VL: DIQMTQSPSTLSASVGDRVTITCQSSQSVYDNNWLGWYQQKPGKAPKLLIYSASTLASGVPSRFSGSGSGTEFTLTISSLQPDDFATYYCAGGYSGNIFAFGQGTKLEILR
B3: 3F4人源化抗体 (VH SEQ ID NO:16 + VL SEQ ID NO:19) (antibody, V domains shown)
VH: B2 VH with V48I, S49G
VL: B2 VL
B4: 3F4人源化抗体 (VH SEQ ID NO:18 + VL SEQ ID NO:19) (antibody, V domains shown)
VH: B2 VH with A23T, A24V
VL: B2 VL
B5: 3F4人源化抗体 (VH SEQ ID NO:17 + VL SEQ ID NO:19) (antibody, V domains shown)
VH: B2 VH with V92T, Y94F
VL: B2 VL

Tests used:
SARS-CoV-2受体结合区RBD-His蛋白 [1] = molecular target: T1, SARS-CoV-2受体结合区RBD-His蛋白 (SARS-CoV-2, UniProt P0DTC2 316-550)
[2] = molecular target: SARS-CoV-2 Sde18截短蛋白 (假病毒SARS-CoV2 VSVpp所携带) (SARS-CoV-2, UniProt P0DTC2 14-1255); assay: cell-based or functional assay
SARS-CoV-2受体结合区RBD-mFc = molecular target: T2, SARS-CoV-2受体结合区RBD-mFc (SARS-CoV-2, UniProt P0DTC2 319-541); assay: indirect ELISA, RBD-mFc coated at 2 μg/mL, HRP goat anti-rabbit IgG
T2 construct: domain: 受体结合区RBD

SARS-CoV-2受体结合区RBD-His蛋白 [3] = molecular target: T1, SARS-CoV-2受体结合区RBD-His蛋白; assay: indirect ELISA, RBD-His coated at 2 μg/mL, HRP goat anti-human IgG

Binder | Kd (SARS-CoV-2受体结合区RBD-His蛋白 [1]) | IC50 (SARS-CoV2 VSVpp假病毒感染模型中和, BHK21-hACE2细胞) [2] | EC50 (SARS-CoV-2受体结合区RBD-mFc) | binding result (SARS-CoV-2受体结合区RBD-His蛋白 [3])
B1 | 8.79 nM | 1.95 ng/mL | 14.4 ng/mL | –
B2 | – | – | – | binds
B3 | – | – | – | binds
B4 | – | – | – | binds
B5 | – | – | – | binds
